According to the NTF2 design screens of Basanta et al. (2020):

Assay: protease stability score; higher = more stable; yeast display proteolysis, trypsin and chymotrypsin;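 further: log10 excess protease needed over predicted unfolded state with 0 meaning unfolded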

Sequence	protease stability score
DDKHAEEVAELMTRNNFKQLAHQADPNVKIVVGEKKWHGREQMRTFMKILTKRVDHLNIQSYDVDNGRVKIDYVVNIDGQEIHVRVEIEFKNGRIQRYVLRATSDENQKELNKALS	0.08
DEHRLATEAIDQFERALQSGNPDEITKMADPDARVHVGDTQLRGREELQRYMHEVRQRHDQVEVHVHRISIDGNKINIHFVLNLNHNGQTDSQSYEMTARVQNGSAVVKEIIQQ	-0.296
DEEKLKKVIDTLQKALQNGNPDEIVKVIDKTVKFKLGDETFEGQEDARKVIKRLRDQGMEFHVERQEVTGDQAKVQTVWHAGDVEMHMHVTYDVDGDKVKRVEVRWDEEAKKAVKKG	0.562
DETAMEVAERFLENINNGNPEEATKQFDPNARFIVGDKRLTGQEQVKSEIEDQKKHIDVNYDVKRVEIDGDKALLELDVQNEHNGRPRTDSAVITMEAHNGKITHMQRDHDG	-0.594
DEEDVKRFAREFFTALQKNDEKKVTDLVDENARAEVGEREYHGREDVATMLARFNKRVDHAHLKRLEVTGDQVIMVFEVVHDGRKTNVSIDMRVHNGRLLEFRMETS	1.41
DEHLQTLVTDLIRAEQNNDEERLKRLMDPNVRAQYGDQTVSGREEIVQKIIHKNREIHFSQEIKSISAHNGRIHVTVEFTEEHNGEPRRDKMHQTIIAHGDQIKEVRVKSDG	-0.28
DEDDQKLITEFLKALERGDPDRLLENADPNASARVGDKDVHGMHNAATDWVRERNSMDVTYDSVEIHVHNGRATIHLDAQFDFNGKPWRDTMTVEIVIRNGKIKDIIFRFDEQQLRDITK	0.714
DEEKVSEAHEFMQDVQNGDEKSLNDLMDKNDEVNVGDKTVHGREDFTRQFQKRRKELRLNIQSVSATRHGDSVVVHVQAQRNHNGNPEESRYVVILSKHNGRIQNVDVKEDK	0.919
DDDAQNTLSDRINLIKQGNKEEVDKQADPNATVQVGDKKVQGREEIRRWIKHVKDQLNVQIEIKHVEAQGNKVRIDASFRARINGKPVRIRFILIADMHNGRFKRVVMHLDEDQQRKYEK	0.943
DEQSEAEKFARDIQKIANHNNFERLARMADKDVKYNVGDKVITGEEKAIEHHRRLQKQFDSMRLEIESVRVQGEKIVVVARYTVEVNGTTRSERFVLVAEVHNGTIRIKTVQQG	-0.167
DHRAVEVIKEMFKALQTGDERRIVEMADKDATATVGDKRVHGMKEAAHDIATEFNEMRFQLSIKRVQHSGNNVKADVEATFHHNGKPRKVQVVIVLRLHNGKVQEMSIRNDG	1.17
DEEQMERVMQRVIKALQQGDQETVRKLGKPNGEVQAGDYRNKGPEAFVMAVDVAQKVGNKFEYKETRTKGGKMQTVVKVTVGGKTVEYEVEVVVEGGKAKEWYVRLDDDFVEQAKKS	0.514
DKKLNKQMEEWVQAVNTGDSEQLEDLVDPNVRLEVGDKQFHGREEVRRQQTKKIEEIRLHLDLKDVKAENGHAQLDVNVEFEHNGQPNSNRRTLNAVVHNGKIKHLSDKTDP	-0.347
DEDEKRELARRFAKNFLHGDHDNIRDLADKDVDAQVGDQTFTGTEQLMRVVKEVRDRVDHFNLTSVDVHNGQADIHARAKVNGRDYRVKIRIKIHNGRILHVQFNRR	1.18
DHRALSQVEQFMNALQQGDEKRLMELADPNVKIIIGDKDVHGREEWDRQVHKRRHEIQYEVRRVKMHVNGDTVHVKIRAVATINGKPFEVEYTANFKIDNGHITHIDWQLPDEYLKRVKS	0.062
DERRLEQQQREYLKVLNTGNPDEMNELFDENASWQVGDKRYTGREEIERKLRELHNRVDQVRLDSYEVEPGRIKIDFQLDVNGVKVRITIILHYHNGRLQEVKMDVTDPEQWKHMQK	-0.011
DDTVRELVKQLRTALESNDEKKVKRLVDPNAQFQYGDKTLHGMTHAASRRVKEHQEIRLSIKKFHVNVSGDHVRVEFRYEVNVNGRPRKASATFTARFENGKMKEQRLRFDEDEYRKLKK	0.063
DEEDLTRLHKLWRNNNWKELVNQMDPNARVTVGDEVIQGRENVTHWADRVEHQIDHYEIKDFRRQGNKILVLFRAEVNGQRFEAIVAVLMVNGDVHHLEVRFRDERDEKKFKEHVS	1.48
DESMQKEVHDFLKAQMTNNEDQLRRQADPNARFVYGNKTLHGMDQAAKHLVKLYREATFRIESVSIDAQGDKADIKQTFIVDINGKPDRDTADIKIKFHNGTIKEVNIQVDEEKERKIRS	-0.218
DPKKDLKVAEEVLKAMYSGDDEKAQKLVDPSVKAQTGDQKYHGTDDIKKMVKTFKDYGVEHEEKETKVDGGYAEVVIQAKIGNDEVEAKWRVYAKDGRVDYVQADITEKLTKLMQHG	-0.445
DHETQNDLATEIVRVYKHGNPDDWSKLVDPNARVVYGDKEIHGREDAMSFMKKLRNQADSIKVKDYKVKNGRVDVVVIIVVNGRHATLQFTIQFHNGKATDVKFDPKQWHELQK	1.28
DEHDITKIMEEIAKVIRNNDEKRLVEMADPNVRVIVGDKEFQGRDEMEKFNHEYSRQADKVQVVSVNVNGNRITIEVTANINGRDLQFVVVFEIKNGTIENVHVNFTNPEVLRQAES	1.19
DEEEDEKFVEFLKNVERGNEDKLRELVPPDAKNQVGDTVVEGRDEWLKKLTSELKKSRVTYNVKSVSASNGRMSLVVDVTVDENGRPQKRDLRIDATVHNGKWQKVHLKFDS	0.342
DEEAEDLVKELWKAWKHNDPDTWVKQLPPDARISVGNKEVHGREQARHEFERQVERMQVRLKVDSVHNRGNKAHFHVTVDASVNGKPVTFTVEVVITFHNGKAKYIEMRMSEEQFDKFQG	1.41
DEEEAQDVLQEVFKAVSRGDEDRAEQLADPNAKAEYGDKSYHGKKVIKEAVRRMSEQADHFEFKHIDHDEGRVVFDMEIEFNGQTFKVKVKAQAHNGRAQNFKFQFRSEDDLERLQS	-0.23

Sequence	protease stability score
DDEEQRKLAKEFIDLLRTGDEEHIAHQADKDVTFQIGDKRYTGQEELLKYMKHLVDRVDHIEVEEVDVRGNKVNVTVVVRYNGKRVTLNFDLEFSNGRLIHMSVDPDQQRQLDG	1.18
DEEHIEEVQRRFISAFKDGDEDQMQRQMDPNVKLVIGDTTIHGRESAAKSLANIVRKVDHVDVESYEVRGNQASMIMRVEINGKDDRLDFQIEIHNGHIKRLEIQSS	0.692
DEEDNETALRTMMELIVEGNTNQAHRLFDENATVKIGDTTFHGREQIAQAIRHLHEQADHMEVKDFRLTGDKARANVQLHHNGKTIEVDVVFRVSNGRVKHMFIDPQQVRHLRG	1.05
EEELQKKASEFIRLQQKGDSEEVMKNVDPNARINVGDKVYDGREQLAKDLHRSKRESRMHFDLKSISVENGKVDVRARMHVVENGQPRRFRVRIIFHQENGRITHFQYHTDD	0.258
DEHKVKEIEDIVRNNDFLKLANMADENARVRYGDKDFHGRERIKTQAQRFETKFDHAEIKSLDVRGNEISVDMVAVFNGRSVRFRMILVVKNGQIKMMEFRATSEKEETKLKEALS	1.25
DEELQELATRQMEALHTNDEKQWVDLFDPNARQRYGDKTIKGREQFSQHLRDMQRHMRVQIHTFSAQVSNGDIHLKIDQLNNVNGTPYRDTVHLEFRVHNGRVKEVILHVSEDQQKKIER	0.918
DREKEAHELIEHFVRMLETGDEEKFKEMMDKDAKLHVGDKDVHGRDDVDRHLAQEYKQYDHVHFRVKDVKVRGDTIEAQVEVQFDHNGKTDTRTYRFVMRVDNGDVKFQSVSNS	1.45
DHEEKAKKFFDDLLRAVKHNDETQLERLFDKNVRFNVGEHNFRGREEFVKMVRTMVEQVDHVTATIVSIETNGDKVNLVAQWDMSHNGNSKRIRVLVVLDDNNGRVVAREMSEK	2.2
DERHNKQWNKELIKIWTDGDHKKFSEMLDKDVQIQVGDKEYHGREEIVRQYKTLMDRADHFEVKRYEVKGNDITIIFTFQVNGRRDQVRVVFVIENGHVKKITMDKK	1.42
EEEVEKAAERVAEVMKDNNPERVEELFDPNAHITVGDRTLHGREELSKHYKTMTDQWRIQIDRFSVEDHGSTVVIRIDFEADHDGRPEKREVIIKLSVSNGRVSWAIFKVDQ	0.734
DDDKVTKVNELLENIKRGNEDDIRDLMDPNARVRIGDKDFHGREEVSDTWKQIRDTAHLSFTDVKNDDQGDHVYVRARFHQTHNGKPDTSVLHLEVTIRNGKIKEAQFHETP	-0.159
DEELQSDVEEFLRNQTTGDEDRLKELADENAKVHVGDKTLHGMDQIKRYERQEREEMRIDYKHWDIKVSGNQVTVHFDFVNRFNGKPQHVSVILHVQFDNGKIKAADYRTDPREREKIRS	-0.463
DDTQRKRIEEYWTAVKTGDEDRLTELVDEDARVRIGDKEWSGREEIVRRIHDHVRQMRVSLEFKRITVNNGKVQLHAEVEYEHNGKPDTAKVELSMELTNGKFKSNDMQIHK	0.607
DDDKKAHKFFSEMLTAIQTGNEDQLRHLVDKDAHINVGDDVITGRENIVETWREKRERVDDLDAKVDSYHVHNGRIEIRAKESSTKNGKSDSRDFRIQARLTNGHVKLQKKEQN	-0.348
DNDKLAKDAVDTMDEVLQDGDEKKLNDLFDPNARLRVGDHEIHGREQIHDWIKTRLNQIDHIEMRIVHVRREGEKALARVTFVNQHNGKQDEREAVYRFTVENGRATFEEVNIK	-0.116
DQEDLRRIAEQVNRAFEKNDHDLMRRLADKDVKFHVGEKELTGRDNLARFLQEFRRRADHITVKSFDASNGRVNADIEIDVNGQKIKLHMQAEVHNGHIKHVRFHYTDEQQLRDFLS	1.24
DEEELSQVVRKVIEALRTGDPDLFQKLADPNAKASVGDKSVHGKEEISSLQKEFSDRVDEIKFTHVSFENGHATIHMELNHNGRHDKVVVKIDVENGKIKHVQIEKS	0.741
DEEVKTLVERLVEALNTGDPDSAMHLVDENAKFQYGDRELHGRENVHKFVEDMKREIRIDMEVKRLRVEPGRVKLTAEFSLSVNGQPDHQSVTMRATAHNGQLKDVQFRLPPEKLEKLKS	-0.199
DEEVLDFVKTMIKVEETGDEEKLKEMFDKNVKARVGDKKYHGMDHQARTIRKERESIKFKIKSITMRYKDGRVHASARVVRHENGKPDEYRETYVLQIHNGKVKTYSKQTDS	-0.188
DEETNKKFASELVHVLRTGDDERLKSMADENATLEVGDKTFHGREEMRKAAEEWQKEIDDLKIESLHVNGDKVVIHFVFTVNGRTDRQIMHLHFDNGKIKSAKMHSG	0.96
DEREEEKMAEDLLNAVERNNPDHAQKMVDENARVVIGDKDVHGRERMREAIKRQKEQFDRFRWTDVKVDNGRVRAQAVYERNGRTHHVDLNAVIHNGRAKSVRIEEK	0.022
DEELLELFERWVDAVHNNDKEQLKRLMDPNVKFQIGDKRWEGREKLVKDIADEQRQIRVRYRVDTMDATNGRADVHAKVEIEVNGKPISFRVRVFMEVHNGKVKSIVWNIPEDDMKKLQK	1.63
DKENLETLHELMTALERGDEQKVADEIDPNAKLQYGDKEIHGRKQAHRFIKTVKDQQRFHIQVKDLKVKGDTMDLRAEVEFQHNGHPDSDVIVVNARAHNGHISTLTVTKDD	-0.223
DDSAMRQIHDLLRHIETGNEKEVSKQMDPNARLQIGDQVYHGNEQARRAWKRERDEIRISIKRVRMDAKGDKVFIEMDLVREKDGTPDRLTMRITVQQHDGRVKDLVQEERR	0.07
DEEKVNERFFTKMKKAHEHGDPDQLRTLFDPNVKVRYGDKSITGRENVVKHIKKLLDEADSVSIQLKRVRVSGNKFSFDVVVSFNINGKHDNQRVIIVAEQHNGHARVKSVQQK	0.949
